From patent US20260250418A1 (BIOCYTOGEN PHARMACEUTICALS BEIJING, published 2026)

Molecular target: T1, human HER4 (hHER4, ACRO Biosystems Inc., Cat #: ER4-H5221), recombinant His-tagged (human, UniProt Q15303 26-649)
T1 construct: Bought protein; not shown: His tag
T1 sequence (looked up): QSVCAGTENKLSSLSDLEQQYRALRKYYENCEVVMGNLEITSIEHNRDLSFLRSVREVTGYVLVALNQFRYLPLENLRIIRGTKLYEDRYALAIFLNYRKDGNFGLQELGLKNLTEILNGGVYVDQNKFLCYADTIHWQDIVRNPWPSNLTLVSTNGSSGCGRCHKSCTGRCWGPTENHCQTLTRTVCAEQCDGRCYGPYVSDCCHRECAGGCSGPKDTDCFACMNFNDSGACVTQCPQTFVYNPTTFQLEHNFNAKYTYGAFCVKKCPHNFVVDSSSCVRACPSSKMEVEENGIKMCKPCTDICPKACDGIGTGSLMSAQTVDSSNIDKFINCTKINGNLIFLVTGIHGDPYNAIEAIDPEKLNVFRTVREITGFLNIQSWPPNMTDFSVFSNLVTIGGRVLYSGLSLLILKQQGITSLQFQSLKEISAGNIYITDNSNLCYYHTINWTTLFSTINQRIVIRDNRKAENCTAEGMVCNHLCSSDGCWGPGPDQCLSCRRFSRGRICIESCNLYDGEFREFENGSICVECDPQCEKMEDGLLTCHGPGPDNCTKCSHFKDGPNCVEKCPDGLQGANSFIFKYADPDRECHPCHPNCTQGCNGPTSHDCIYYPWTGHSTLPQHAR
Test: SPR (Biacore 8K), antibody captured on Protein A chip, His-tagged hHER4 injected at 0-400 nM; response (RU) plotted against concentration [panel F]
Protocol: The cross binding activities of anti-HER3 antibodies to HER family proteins were determined by surface plasmon resonance (SPR) using Biacore (Biacore, INC, Piscataway N.J.) 8K biosensor equipped with pre-immobilized Protein A sensor chips.
Purified anti-HER3 antibodies were diluted to 2 μg/mL and then injected into the Biacore 8K biosensor at 10 μL/min for about 50 seconds to achieve a desired protein density (e.g., about 200 response units (RU)). […] The association phase lasted for 180 s and the dissociation phase lasted 400 s followed by a regeneration step with Glycine (pH 2.0, 30 μL/min for 30 seconds). For isotype control (ISO), an antibody targeting an irrelevant target protein was used.

B1: Patritumab analog (antibody, V domains shown)
VH: QVQLQQWGAGLLKPSETLSLTCAVYGGSFSGYYWSWIRQPPGKGLEWIGEINHSGSTNYNPSLKSRVTISVETSKNQFSLKLSSVTAADTAVYYCARDKWTWYFDLWGRGTLVTVSS
VL: not shown
notes: also called positive control
- binding result: no binding (tested: 400 nM)
